Measured values taken from paper PMC7346168, “Redox Conformation-Specific Protein–Protein Interactions of the 2-Cysteine Peroxiredoxin in Arabidopsis” (Antioxidants, 2020).

T1: 2-cysteine peroxiredoxin A, wild type (2-CysPRXA WT) (Arabidopsis, UniProt Q96291 66-266)
T1 chain: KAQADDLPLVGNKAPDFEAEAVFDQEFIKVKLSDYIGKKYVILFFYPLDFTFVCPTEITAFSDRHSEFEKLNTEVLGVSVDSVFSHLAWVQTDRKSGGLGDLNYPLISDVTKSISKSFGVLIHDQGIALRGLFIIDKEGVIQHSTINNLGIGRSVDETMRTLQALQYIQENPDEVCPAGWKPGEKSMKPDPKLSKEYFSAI

T2: 2-cysteine peroxiredoxin A, wild type (2-CysPRXA WT) (Arabidopsis, UniProt Q96291 66-266)
T2 sequence (looked up): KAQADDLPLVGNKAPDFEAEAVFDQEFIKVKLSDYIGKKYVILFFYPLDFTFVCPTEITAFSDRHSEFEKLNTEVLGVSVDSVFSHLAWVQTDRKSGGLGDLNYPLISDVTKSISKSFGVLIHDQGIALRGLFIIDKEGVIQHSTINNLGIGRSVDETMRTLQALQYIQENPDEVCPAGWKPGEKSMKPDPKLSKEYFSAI

T3: 2-CysPRXA C54S (pseudo-reduced variant) (Arabidopsis, UniProt Q96291 66-266, C54S)
T3 sequence: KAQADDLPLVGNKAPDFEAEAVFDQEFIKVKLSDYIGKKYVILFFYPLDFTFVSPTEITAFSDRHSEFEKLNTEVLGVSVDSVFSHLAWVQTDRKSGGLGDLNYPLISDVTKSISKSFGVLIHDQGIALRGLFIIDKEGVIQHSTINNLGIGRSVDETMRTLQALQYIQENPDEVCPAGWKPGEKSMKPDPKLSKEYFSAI

T4: 2-CysPRXA C54S (pseudo-reduced variant) (Arabidopsis, UniProt Q96291 66-266, C54S)
T4 construct: 2-Cys peroxiredoxin A, Arabidopsis; source: E. coli BL21, recombinant (pET28a)
T4 sequence (looked up): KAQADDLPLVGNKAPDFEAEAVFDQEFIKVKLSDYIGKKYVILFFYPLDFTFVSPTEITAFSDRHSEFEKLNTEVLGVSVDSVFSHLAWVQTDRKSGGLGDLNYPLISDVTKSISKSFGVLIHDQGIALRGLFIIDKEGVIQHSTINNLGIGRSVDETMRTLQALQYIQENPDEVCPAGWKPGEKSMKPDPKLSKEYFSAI


Columns and labels:
[1] = biological target: T1, 2-cysteine peroxiredoxin A, wild type …; assay: ITC; reduced (unit printed as M)
[2] = biological target: T2, 2-cysteine peroxiredoxin A, wild type …; assay: cell-based or functional assay
[3] = biological target: T2, 2-cysteine peroxiredoxin A, wild type …; assay: ITC; LOX2 injected into 2-CysPRX WT under reducing conditions (proteins treated with 10 mM DTT, dialysed); 35 mM HEPES pH 8.0; settings: both partners purified
[4] = biological target: T3, 2-CysPRXA C54S (pseudo-reduced variant); assay: ITC; oxidized (unit printed as M)
[5] = biological target: T4, 2-CysPRXA C54S (pseudo-reduced variant); assay: ITC; CP12-1 injected into 2-CysPRXA C54S under oxidizing conditions (proteins treated with 1 mM H2O2, dialysed); 35 mM HEPES pH 8.0; settings: both partners purified

| Ka [1] [M⁻¹] | LOX2-catalysed peroxidation of α-linolenic acid (absorbance at 234 nm), 0.5 µM LOX2 with 0.5 µM oxidized 2-CysPRXA; rate against LOX2 alone [2] [fold] | LOX2-catalysed peroxidation of α-linolenic acid (absorbance at 234 nm), 0.5 µM LOX2 with 0.5 µM reduced 2-CysPRXA; rate against LOX2 alone [2] [fold] | stoichiometry N [3] | Ka [4] [M⁻¹] | stoichiometry N [5] | Binder |
| --- | --- | --- | --- | --- | --- | --- |
| 4.18e+07 | 2.4 | 1.4 | ~1 | – | – | LIPOXYGENASE 2, recombinant hisx6-tagged (enzyme, Arabidopsis thaliana, UniProt P38418 71-896, looked up, Lipoxygenase 2, Arabidopsis thaliana; the limits follow from them; also called LOX2; 13-LIPOXYGENASE; source: E. coli BL21, recombinant (pET15b)) QNIKVKGYITAQEEFLEGITWSRGLDDIADIRGRSLLVELISAKTDQRITVEDYAQRVWAEAPDEKYECEFEMPEDFGPVGAIKIQNQYHRQLFLKGVELKLPGGSITFTCESWVAPKSVDPTKRIFFSDKSYLPSQTPEPLKKYRKEELETLQGKNREEVGEFTKFERIYDYDVYNDVGDPDNDPELARPVIGGLTHPYPRRCKTGRKPCETDPSSEQRYGGEFYVPRDEEFSTAKGTSFTGKAVLAALPSIFPQIESVLLSPQEPFPHFKAIQNLFEEGIQLPKDAGLLPLLPRIIKALGEAQDDILQFDAPVLINRDRFSWLRDDEFARQTLAGLNPYSIQLVEEWPLISKLDPAVYGDPTSLITWEIVEREVKGNMTVDEALKNKRLFVLDYHDLLLPYVNKVRELNNTTLYASRTLFFLSDDSTLRPVAIELTCPPNINKPQWKQVFTPGYDATSCWLWNLAKTHAISHDAGYHQLISHWLRTHACTEPYIIAANRQLSAMHPIYRLLHPHFRYTMEINARARQSLVNGGGIIETCFWPGKYALELSSAVYGKLWRFDQEGLPADLIKRGLAEEDKTAEHGVRLTIPDYPFANDGLILWDAIKEWVTDYVKHYYPDEELITSDEELQGWWSEVRNIGHGDKKDEPWWPVLKTQDDLIGVVTTIAWVTSGHHAAVNFGQYGYGGYFPNRPTTTRIRMPTEDPTDEALKEFYESPEKVLLKTYPSQKQATLVMVTLDLLSTHSPDEEYIGEQQEASWANEPVINAAFERFKGKLQYLEGVIDERNVNITLKNRAGAGVVKYELLKPTSEHGVTGMGVPYSISI |
| – | – | – | – | 3.91e+06 | ~1 | CHLOROPLAST PROTEIN 12-1, recombinant hisx6-tagged (natural protein, Arabidopsis thaliana, UniProt O22914 48-124, looked up, Calvin cycle protein CP12-1, Arabidopsis thaliana; also called CP12-1; CHLOROPLAST REGULATOR; source: E. coli BL21, recombinant) TSEGEISEKVEKSIQEAKETCADDPVSGECVAAWDEVEELSAAASHARDKKKAGGSDPLEEYCNDNPETDECRTYDN |
